Where a chain is given by its changes, count along the chain named. Names and notes keep the numbering of the source.
T1: GST-BMRF1(1-303) (Epstein-Barr virus, UniProt P03191)
T1 construct: A GST fusion with BMRF1 residues 1-303 was constructed and expressed in E. coli BL21*DE3; made in house; host or cells: E. coli BL21*DE3
T1 sequence (P03191 1-303): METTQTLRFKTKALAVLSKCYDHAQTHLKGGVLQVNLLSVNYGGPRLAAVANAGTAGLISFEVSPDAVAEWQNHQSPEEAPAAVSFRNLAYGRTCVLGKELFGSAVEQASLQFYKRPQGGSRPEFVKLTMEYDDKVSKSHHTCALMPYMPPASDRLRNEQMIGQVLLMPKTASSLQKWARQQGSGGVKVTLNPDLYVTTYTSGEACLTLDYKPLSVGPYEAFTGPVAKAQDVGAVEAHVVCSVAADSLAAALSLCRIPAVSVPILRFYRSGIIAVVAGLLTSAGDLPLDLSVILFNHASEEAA

B1: WT (1-404): full-length 50-kDa BMRF1 processivity factor subunit of EBV DNA polymerase, SEQ ID NO. 9 (protein)
chain: METTQTLRFKTKALAVLSKCYDHAQTHLKGGVLQVNLLSVNYGGPRLAAVANAGTAGLISFEVSPDAVAEWQNHQSPEEAPAAVSFRNLAYGRTCVLGKELFGSAVEQASLQFYKRPQGGSRPEFVKLTMEYDDKVSKSHHTCALMPYMPPASDRLRNEQMIGQVLLMPKTASSLQKWARQQGSGGVKVTLNPDLYVTTYTSGEACLTLDYKPLSVGPYEAFTGPVAKAQDVGAVEAHVVCSVAADSLAAALSLCRIPAVSVPILRFYRSGIIAVVAGLLTSAGDLPLDLSVILFNHASEEAAASTASEPEDKSPRVQPLGTGLQQRPRHTVSPSPSPPPPPRTPTWESPARPETPSPAIPSHSSNTALERPLAVQLARKRTSSEARQKQKHPKKVKQAFNPLI
modifications: Epstein-Barr Virus
B2: N160: BALF5 with deletion of the amino-terminal 160 residues (protein)
chain: VEFAVLSALKASTFDRRTPCRVSVEKVTRRSIMGYGNHAGDYHKITLSHPNSVCHVATWLQDKHGCRIFEANVDATRRFVLDNDFVTFGWYSCRRAIPRLQHRDSYAELEYDCEVGDLSVRREDSSWPSYQALAFDIECLGEEGFPTATNEADLILQISCVLWSTGEEAGRYRRILLTLGTCEDIEGVEVYEFPSELDMLYAFFQLIRDLSVEIVTGYNVANFDWPYILDRARHIYSINPASLGKIRAGGVCEVRRPHDAGKGFLRANTKVRITGLIPIDMYAVCRDKLSLSDYKLDTVARHLLGAKKEDVHYKEIPRLFAAGPEGRRRLGMYCVQDSALVMDLLNHFVIHVEVAEIAKIAHIPCRRVLDDGQQIRVFSCLLAAAQKENFILPMPSASDRDGYQGATVIQPLSGFYNSPVLVVDFASLYPSIIQAHNLCYSTMITPGEEHRLAGLRPGEDYESFRLTGGVYHFVKKHVHESFLASLLTSWLAKRKAIKKLLAACEDPRQRTILDKQQLAIKCTCNAVYGFTGVANGLFPCLSIAETVTLQGRTMLERAKAFVEALSPANLQALAPSPDAWAPLNPEGQLRVIYGDTDSLFIECRGFSESETLRFADALAAHTTRSLFVAPISLEAEKTFSCLMLITKKRYVGVLTDGKTLMKGVELVRKTACKFVQTRCRRVLDLVLADARVKEAASLLSHRPFQESFTQGLPVGFLPVIDILNQAYTDLREGRVPMGELCFSTELSRKLSAYKSTQMPHLAVYQKFVERNEELPQIHDRIQYVFVEPKGGVKGARKTEMAEDPAYAERHGVPVAVDHYFDKLLQGAANILQCLFDNNSGAALSVLQNFTARPPF
B3: A107-550: BALF5 with internal deletion of residues 107-550 (protein)
chain: MASASLTMSGGLFYNPFLRPNKGLLKKPDKEYLRLIPKCFQTPGAAGVVDVRGPQPPLCFYQDSLTVVGGDEDGKGMWWRQRAQEGTARPEADTHGSPLDFHVYDILETVYTHILPMPSASDRDGYQGATVIQPLSGFYNSPVLVVDFASLYPSIIQAHNLCYSTMITPGEEHRLAGLRPGEDYESFRLTGGVYHFVKKHVHESFLASLLTSWLAKRKAIKKLLAACEDPRQRTILDKQQLAIKCTCNAVYGFTGVANGLFPCLSIAETVTLQGRTMLERAKAFVEALSPANLQALAPSPDAWAPLNPEGQLRVIYGDTDSLFIECRGFSESETLRFADALAAHTTRSLFVAPISLEAEKTFSCLMLITKKRYVGVLTDGKTLMKGVELVRKTACKFVQTRCRRVLDLVLADARVKEAASLLSHRPFQESFTQGLPVGFLPVIDILNQAYTDLREGRVPMGELCFSTELSRKLSAYKSTQMPHLAVYQKFVERNEELPQIHDRIQYVFVEPKGGVKGARKTEMAEDPAYAERHGVPVAVDHYFDKLLQGAANILQCLFDNNSGAALSVLQNFTARPPF
B4: C550: BALF5 with deletion of the carboxyl terminal 465 residues (protein)
chain: MASASLTMSGGLFYNPFLRPNKGLLKKPDKEYLRLIPKCFQTPGAAGVVDVRGPQPPLCFYQDSLTVVGGDEDGKGMWWRQRAQEGTARPEADTHGSPLDFHVYDILETVYTHEKCAVIPSDKQGYVVPCGIVIKLLGRRKADGASVCVNVFGQQAYFYASAPQGLDVEFAVLSALKASTFDRRTPCRVSVEKVTRRSIMGYGNHAGDYHKITLSHPNSVCHVATWLQDKHGCRIFEANVDATRRFVLDNDFVTFGWYSCRRAIPRLQHRDSYAELEYDCEVGDLSVRREDSSWPSYQALAFDIECLGEEGFPTATNEADLILQISCVLWSTGEEAGRYRRILLTLGTCEDIEGVEVYEFPSELDMLYAFFQLIRDLSVEIVTGYNVANFDWPYILDRARHIYSINPASLGKIRAGGVCEVRRPHDAGKGFLRANTKVRITGLIPIDMYAVCRDKLSLSDYKLDTVARHLLGAKKEDVHYKEIPRLFAAGPEGRRRLGMYCVQDSALVMDLLNHFVIHVEVAEIAKIAHIPCRRVLDDGQQIRVFSCLLAAAQKENF
B5: ΔC903: BALF5 with deletion of the carboxyl-terminal 112 residues (protein)
chain: MASASLTMSGGLFYNPFLRPNKGLLKKPDKEYLRLIPKCFQTPGAAGVVDVRGPQPPLCFYQDSLTVVGGDEDGKGMWWRQRAQEGTARPEADTHGSPLDFHVYDILETVYTHEKCAVIPSDKQGYVVPCGIVIKLLGRRKADGASVCVNVFGQQAYFYASAPQGLDVEFAVLSALKASTFDRRTPCRVSVEKVTRRSIMGYGNHAGDYHKITLSHPNSVCHVATWLQDKHGCRIFEANVDATRRFVLDNDFVTFGWYSCRRAIPRLQHRDSYAELEYDCEVGDLSVRREDSSWPSYQALAFDIECLGEEGFPTATNEADLILQISCVLWSTGEEAGRYRRILLTLGTCEDIEGVEVYEFPSELDMLYAFFQLIRDLSVEIVTGYNVANFDWPYILDRARHIYSINPASLGKIRAGGVCEVRRPHDAGKGFLRANTKVRITGLIPIDMYAVCRDKLSLSDYKLDTVARHLLGAKKEDVHYKEIPRLFAAGPEGRRRLGMYCVQDSALVMDLLNHFVIHVEVAEIAKIAHIPCRRVLDDGQQIRVFSCLLAAAQKENFILPMPSASDRDGYQGATVIQPLSGFYNSPVLVVDFASLYPSIIQAHNLCYSTMITPGEEHRLAGLRPGEDYESFRLTGGVYHFVKKHVHESFLASLLTSWLAKRKAIKKLLAACEDPRQRTILDKQQLAIKCTCNAVYGFTGVANGLFPCLSIAETVTLQGRTMLERAKAFVEALSPANLQALAPSPDAWAPLNPEGQLRVIYGDTDSLFIECRGFSESETLRFADALAAHTTRSLFVAPISLEAEKTFSCLMLITKKRYVGVLTDGKTLMKGVELVRKTACKFVQTRCRRVLDLVLADARVKEAASLLSHRPFQESFTQGLPVGFLPVIDILNQAYTDLREGRVPMGELCFS
B6: C95E: BMRF1 comprising a C95E mutation, a monomeric form of BMRF1 (protein, UniProt P03191 1-404, looked up, variant C95E)
DNA polymerase processivity …: B1 chain with C95E

What was measured:
[1] = test system: activated calf thymus (CT) DNA; test: DNA polymerase elongation activity of purified BALF5 on activated calf thymus DNA; assay type: biochemical; settings: BMRF1 at concentrations required for stimulation at high-salt
Experimental: When assayed in the presence of BMRF1, its activity on CT DNA at 100 mM ammonium sulfate was greater than 100-fold increased over its activity alone, in the absence of salt.

GST-BMRF1(1-303) = molecular target: T1, GST-BMRF1(1-303); test: Binding of radiolabeled BALF5-deletion polypeptides to GST-BMRF1(1-303); settings: 100 mM ammonium sulfate; [35S]-methionine labeled in vitro translated polypeptides
Experimental: To determine if the extreme carboxyl terminus of the EBV BALF5 subunit is necessary for functional interaction with BMRF1, a series of deletions of the BALF5 open reading frame was constructed in the pYES-X2 vector and [^35S]-methionine labeled polypeptides were expressed by in vitro transcription-translation as described (Kiehl, A. and D. I. Dorsky, J Virol, 1995, 69(3): p. 1669-77). These radiolabeled BALF5-deletion polypeptides were then assayed for binding to GST-BMRF1(1-303) in 100 mM ammonium sulfate. In vitro translated BALF5 bound to GST-BMRF1(1-303) but not to GST alone.

[2] = DNA polymerase activity in vitro of BALF5 deletion polypeptides; assay type: biochemical; settings: with or without BMRF1, high and low ionic strength
[3] = monomeric form of BMRF1; cited from earlier work

Row | Molecule | effect on the low-salt activity of BALF5 [1] | binding to GST-BMRF1(1-303) (GST-BMRF1(1-303)) | DNA polymerase activity in vitro [2] | EBVpol processivity [3]
1 | B1 | did not appear to significantly decrease |  |  | 
2 | B2 |  | did not prevent binding | catalytically inactive | 
3 | B3 |  | did not prevent binding | catalytically inactive | 
4 | B4 |  | did not bind | catalytically inactive | 
5 | B5 |  | binding was preserved | wild-type DNA polymerase activity | 
6 | B6 |  |  |  | can still efficiently catalyze EBVpol processivity

From US9994886B2, “Modified Epstein-Barr virus DNA polymerase and methods for isothermal DNA amplification” (priority 2013, dated 2018)
